Assay results taken from paper PMC9002611.

Target: Strep-tagged HypC_(H51A) (E. coli) (UniProt P0AAM3)
Assay: pull-down; single-step Strep-tactin affinity enrichment of the Strep-tagged chaperone from extracts of anaerobically grown SHH228 cells co-producing HypD; elution fractions (10 ug protein) on SDS-PAGE, Coomassie stain, densitometry (ImageQuant TL); apparent stoichiometries

apparent stoichiometry with HypD, percent lower than for the native chaperone: 85 % lower
B1: HypD (untagged) (natural protein)
chain: MRFVDEYRAPEQVMQLIEHLRERASHLSYTAERPLRIMEVCGGHTHAIFKFGLDQLLPENVEFIHGPGCPVCVLPMGRIDTCVEIASHPEVIFCTFGDAMRVPGKQGSLLQAKARGADVRIVYSPMDALKLAQENPTRKVVFFGLGFETTMPTTAITLQQAKARDVQNFYFFCQHITLIPTLRSLLEQPDNGIDAFLAPGHVSMVIGTDAYNFIASDFHRPLVVAGFEPLDLLQGVVMLVQQKIAAHSKVENQYRRVVPDAGNLLAQQAIADVFCVNGDSEWRGLGVIESSGVHLTPDYQRFDAEAHFRPAPQQVCDDPRARCGEVLTGKCKPHQCPLFGNTCNPQTAFGALMVSSEGACAAWYQYRQQESEA
